Results as given in patent US20050060761A1.

Biological target: TrkB receptor (endogenous, at mouse motor nerve terminals) (mouse) (UniProt P15209)
Test: cell-based or functional assay

Chain of UniProt P15209 (P15209 32-821): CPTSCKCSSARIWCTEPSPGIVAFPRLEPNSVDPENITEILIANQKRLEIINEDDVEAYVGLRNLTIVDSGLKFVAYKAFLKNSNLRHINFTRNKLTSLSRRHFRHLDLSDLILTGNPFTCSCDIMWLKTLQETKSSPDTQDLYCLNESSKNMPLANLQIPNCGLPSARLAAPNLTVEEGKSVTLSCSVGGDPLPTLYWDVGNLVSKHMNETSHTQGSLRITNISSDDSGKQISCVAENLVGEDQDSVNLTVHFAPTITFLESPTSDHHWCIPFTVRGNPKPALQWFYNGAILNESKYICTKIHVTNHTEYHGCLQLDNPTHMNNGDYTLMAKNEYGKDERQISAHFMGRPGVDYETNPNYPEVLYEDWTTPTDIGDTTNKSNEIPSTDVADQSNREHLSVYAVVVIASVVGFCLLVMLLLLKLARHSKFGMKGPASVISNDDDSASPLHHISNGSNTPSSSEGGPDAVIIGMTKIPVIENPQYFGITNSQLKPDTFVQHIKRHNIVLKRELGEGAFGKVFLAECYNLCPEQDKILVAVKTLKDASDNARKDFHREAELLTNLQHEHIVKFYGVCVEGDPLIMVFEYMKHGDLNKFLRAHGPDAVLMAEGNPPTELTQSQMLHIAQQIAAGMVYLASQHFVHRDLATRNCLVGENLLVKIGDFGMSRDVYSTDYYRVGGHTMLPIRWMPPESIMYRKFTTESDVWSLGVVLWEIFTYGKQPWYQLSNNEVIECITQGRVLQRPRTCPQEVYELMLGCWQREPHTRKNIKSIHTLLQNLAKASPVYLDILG

Substance: recombinant human Brain Derived Neurotrophic Factor (BDNF) (from UniProt P23560 129-247) (ligand)
- elevation in the level of GFP-TTC concentration at the NMJ (LAL), 100 ng BDNF: 1.72 fold
- elevation in the level of GFP-TTC concentration at the NMJ (LAL), 250 ng BDNF: 1.15 fold
- increase of GFP-TTC signal at the NMJ by BDNF after BoTx/A treatment: 2.05 fold

Substance: recombinant human Neurotrophin 4 (NT-4) (from UniProt P34130 81-210) (ligand)
- GFP-TTC localization at the NMJ, fold increase: 1.54 fold
